Results taken from patent publication US20100196953.

Columns and labels:
[1] = tested on: pre-pro-insulin glargine
[2] = biological target: pre-pro-insulin glargine; remark: listed apart in the source
[3] = biological target: pre-pro-insulin (human insulin)
[4] = biological target: pre-pro-insulin glulisine

## Serine190Alanine human trypsin variant
[1]
  by-product formation in pre-pro-insulin processing (HPLC): High amounts of by-products, mainly B30-des-Thr- and A0-components, are formed during reaction

B1: Ser172Ala porcine trypsin (protein)
chain: IVGGYTCAANSIPYQVSLNSGSHFCGGSLINSQWVVSAAHCYKSRIQVRLGEHNIDVLEGNEQFINAAKIITHPNFNGNTLDNDIMLIKLSSPATLNSRVATVSLPRSCAAAGTECLISGWGNTKSSGSSYPSLLQCLKAPVLSDSSCKSSYPGQITGNMICVGFLEGGKDACQGDSGGPVVCNGQLQGIVSWGYGCAQKNKPGVYTKVCNYVNWIQQTIAAN
[2]
  Insulin glargine [area %]: 55.5 area %
  Yield (external standard) [%]: 62.9%
  des-Thr [area %]: 2.6 area %
  pre-Insulin glargine [area %]: 0.4 area %
  Σ A0 compounds [area %]: 5.1 area %
[3]
  Yield (external standard) [%]: 96.5%
  des-Thr [area %]: 3.3 area %
  Σ A0 compounds [area %]: 4.1 area %
  Σ Arg-Ins [area %]: 82.5 area %
  Σ pre-Arg-Ins [area %]: 0.9 area %
[4]
  A0-Arg-insulin glulisine [area %]: 1.2 area %
  Arg-insulin-glulisine [area %]: 39.2 area %
  Yield (external standard) [%]: 100%

B2: native, recombinant porcine trypsin (wildtype porcine pancreatic trypsin isoform I) (protein)
chain: IVGGYTCAANSIPYQVSLNSGSHFCGGSLINSQWVVSAAHCYKSRIQVRLGEHNIDVLEGNEQFINAAKIITHPNFNGNTLDNDIMLIKLSSPATLNSRVATVSLPRSCAAAGTECLISGWGNTKSSGSSYPSLLQCLKAPVLSDSSCKSSYPGQITGNMICVGFLEGGKDSCQGDSGGPVVCNGQLQGIVSWGYGCAQKNKPGVYTKVCNYVNWIQQTIAAN
[2]
  Insulin glargine [area %]: 51.1 area %
  Yield (external standard) [%]: 58.1%
  des-Thr [area %]: 5.6 area %
  pre-Insulin glargine [area %]: 0.5 area %
  Σ A0 compounds [area %]: 10.9 area %
[3]
  Yield (external standard) [%]: 84.2%
  des-Thr [area %]: 7.2 area %
  Σ A0 compounds [area %]: 10.7 area %
  Σ Arg-Ins [area %]: 68.8 area %
  Σ pre-Arg-Ins [area %]: 1.4 area %
[4]
  A0-Arg-insulin glulisine [area %]: 4.7 area %
  Arg-insulin-glulisine [area %]: 35.8 area %
  Yield (external standard) [%]: 91.6%
